Laboratory results: the supplement of paper PMC12042874
± gives the uncertainty stated by the source.

Test: amyloid nucleation score (Sup35N fusion, yeast selection) (log enrichment); library NNK1; higher = more nucleation; inactive = no reads after selection
Method in brief: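 Sup35N fusions to peptides of 20 random codons were expressed in psi-negative yeast, induced 24 hours with 100 μM copper sulfate, and grown 7 days at 30°C on medium lacking adenine and uracil. Input and output plasmid inserts were sequenced by Illumina. The nucleation score is the DiMSum log enrichment of output over input reads, centred on the mode score of non-aggregating sequences. Sequences with under 100 input reads were excluded.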

Substance	amyloid nucleation score
AVVKAVVNGRILFYRTREVS	0.226 ± 0.58
AVVLLLNRTD	0.282 ± 0.59
AVYAAYFWGSI	-0.065 ± 0.69
AVYICPYLQSGNALATDMW	0.587 ± 1.1
AWDVAS	0.967 ± 0.6
AWNTGSIARHSFSRIVSTCD	0.182 ± 0.39
AWRIIPGILAFTFEEM	-0.428 ± 0.79
AYLNREFGFLFTLNFGCGFF	-0.636 ± 0.39
AYLVFDGQ	-0.283 ± 0.37
AYSCDLVELRVCAVSVWEEW	1.42 ± 0.41
AYTLRYTFRYKYWLRYRLAG	0.861 ± 0.58
CAQRPAVRSF	-0.075 ± 0.98
CASMMPDSVSVRTKSNVT	-1.02 ± 1.3
CAVLLVIGTAANEMCARRLI	-0.197 ± 1.9
CAVTDVRIIIHF	2.15 ± 0.22
CCCISDHESNCDSDQSRLGF	0.585 ± 0.36
CCDDIRTQDLALRAQIP	-0.21 ± 0.32
CCFMYAQIDLLNFSMDVLAR	0.198 ± 0.29
CCHYDHKSGVNSLRRKTNVW	1.57 ± 0.43
CCLEWRWLRMEDDPVNGEDV	-0.073 ± 0.43
CCYDPNGLAKNKTW	-0.013 ± 0.65
CDMNPSDYDPLCEVSHRIIS	0.561 ± 0.24
CDPGVKYSVSKAYRGWEYAL	-0.042 ± 1.2
CDVVVSSF	-0.117 ± 0.88

Substance	amyloid nucleation score
CDYLNGLKGYSP	-0.19 ± 0.35
CECHPFHPRVLVYGRYRFNP	0.033 ± 0.38
CELPGLGVLLVGGKPMEWLN	inactive
CELPTRLF	-0.143 ± 0.33
CESGW	-0.115 ± 1.2
CFFPVSPFFIIRGKIQIFYL	-2.51 ± 2.7
CFLETMDFGH	-0.472 ± 1.2
CFNVSVSGEDSFLFGYGWHI	0.159 ± 0.66
CFPFIFRIGFTNNGADSLVK	-0.507 ± 0.63
CFRHR	0.428 ± 0.5
CFYAA	-0.557 ± 0.56
CFYNKRLCGRPFMLVWQNYS	0.161 ± 0.56
CGAELRIGGCSGPGGMFQTR	0.031 ± 0.27
CGEFGR	-0.682 ± 0.52
CGGFRNMRVPVHLVPACRW	0.334 ± 0.68
CGIDKSDRIMLIKTVQLSVQ	0.09 ± 0.68
CGITGMATVLNELPKLKHML	0.202 ± 0.62
CGMVGWTSLPEQNRYPIPST	-0.511 ± 1.1
CGNAWVKAIMW	-0.191 ± 0.66
CGVLKTRIPLCFGVFEWNSL	0.475 ± 0.72
CGVMDGYLTAK	-0.619 ± 0.32
CGWNFTVIHFSLDSVSHLLY	-0.568 ± 0.66
CGWRQKLVMVETVTGFSLWG	1.41 ± 0.88
CHHSYCMITPLTVSTARNGW	0.749 ± 0.35

Substance	amyloid nucleation score
CICRRVSKTVLSLQANEAPC	-0.561 ± 0.41
CICTRGMGSLSDCYELR	0.689 ± 0.46
CIFHL	0.303 ± 0.65
CIFPRCVYLYHSVWVDVVGC	-0.097 ± 0.61
CIFSRNQGLIHRLEDNGH	0.685 ± 0.33
CIFTRKGIEVVCWLEGRMVP	0.411 ± 1.2
CILGWKYLDVVYDQRRLRCG	0.939 ± 0.46
CIMPMIGKYVGVFSSGSSIS	inactive
CIVNMNRGWISIDLLRD	5.78 ± 0.073
CIVVYLSLY	3.32 ± 0.099
CKDFRRAVVNEFPVSVSFYC	0.922 ± 0.9
CKHVETK	-0.535 ± 1.4
CKQCRE	-0.01 ± 0.74
CKQRKCLGRIYVCEHISQSL	0.461 ± 0.67
CLARGSKYWNRQNKVNFPYI	1.51 ± 0.13
CLCARML	0.542 ± 0.67
CLDVGHIFLGKVEWTGEPW	-0.375 ± 0.64
CLFFLPQGLKRYE	0.015 ± 0.53
CLFLWVTSVL	1.19 ± 0.57
CLFNEALINANHLNNINWML	-0.361 ± 0.66
CLFNQKGMFTSGCKVYLTLV	-0.152 ± 0.27
CLKFSIFDGE	0.127 ± 0.6
CLKWTVNIDGFIPDARLPRS	3.18 ± 0.18
CLLFNGNKLVCSHILMRKNG	0.443 ± 0.23
